# Target: Haemophilus surface fibril (Hsf) putative domain 1 (PD1) (H. influenzae)
# Experiment: SEC-MALLS; Superdex 200 5/150, buffer C (50 mM Tris, 150 mM NaCl pH 8.0), 0.2 ml/min; LS, dRI and UV detectors; IMAC- and SEC-purified HsfPD1
substance,measurement,value
Haemophilus surface fibril (Hsf) putative domain 1 (PD1) (domain or fragment),stoichiometry N,3

# Reference: article PMC5297931
